Results: article PMC7129694 (Clinical Microbiology and Infection, 2005)

Biological target: Purified recombinant rClfB protein (clumping factor B of Staphylococcus aureus) (Staphylococcus aureus, UniProt O86476 45-877)
Sequence (O86476 45-877): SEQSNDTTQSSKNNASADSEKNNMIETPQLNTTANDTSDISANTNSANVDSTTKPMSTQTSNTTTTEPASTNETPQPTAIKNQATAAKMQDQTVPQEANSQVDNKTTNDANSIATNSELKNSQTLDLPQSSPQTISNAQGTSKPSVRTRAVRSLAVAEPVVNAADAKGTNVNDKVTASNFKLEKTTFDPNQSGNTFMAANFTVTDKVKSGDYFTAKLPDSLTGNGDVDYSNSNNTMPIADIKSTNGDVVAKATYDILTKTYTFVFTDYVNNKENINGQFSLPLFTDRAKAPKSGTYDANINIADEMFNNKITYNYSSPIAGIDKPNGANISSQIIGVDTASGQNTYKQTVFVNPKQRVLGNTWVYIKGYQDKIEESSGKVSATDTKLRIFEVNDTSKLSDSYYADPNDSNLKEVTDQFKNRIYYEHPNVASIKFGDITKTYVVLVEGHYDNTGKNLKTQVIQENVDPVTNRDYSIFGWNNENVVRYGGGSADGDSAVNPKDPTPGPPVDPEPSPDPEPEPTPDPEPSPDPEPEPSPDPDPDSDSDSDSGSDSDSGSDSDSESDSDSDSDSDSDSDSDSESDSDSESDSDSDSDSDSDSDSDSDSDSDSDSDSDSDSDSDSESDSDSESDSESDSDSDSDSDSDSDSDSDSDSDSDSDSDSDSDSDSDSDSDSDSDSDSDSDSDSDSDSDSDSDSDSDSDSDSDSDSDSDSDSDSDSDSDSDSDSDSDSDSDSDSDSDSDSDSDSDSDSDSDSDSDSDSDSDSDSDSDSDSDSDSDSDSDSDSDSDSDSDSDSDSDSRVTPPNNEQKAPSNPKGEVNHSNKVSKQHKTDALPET

B1: Purified recombinant human cytokeratin 10 (natural protein, UniProt P13645 1-584, looked up)
chain: MSVRYSSSKHYSSSRSGGGGGGGGCGGGGGVSSLRISSSKGSLGGGFSSGGFSGGSFSRGSSGGGCFGGSSGGYGGLGGFGGGSFRGSYGSSSFGGSYGGIFGGGSFGGGSFGGGSFGGGGFGGGGFGGGFGGGFGGDGGLLSGNEKVTMQNLNDRLASYLDKVRALEESNYELEGKIKEWYEKHGNSHQGEPRDYSKYYKTIDDLKNQILNLTTDNANILLQIDNARLAADDFRLKYENEVALRQSVEADINGLRRVLDELTLTKADLEMQIESLTEELAYLKKNHEEEMKDLRNVSTGDVNVEMNAAPGVDLTQLLNNMRSQYEQLAEQNRKDAEAWFNEKSKELTTEIDNNIEQISSYKSEITELRRNVQALEIELQSQLALKQSLEASLAETEGRYCVQLSQIQAQISALEEQLQQIRAETECQNTEYQQLLDIKIRLENEIQTYRSLLEGEGSSGGGGRGGGSFGGGYGGGSSGGGSSGGGHGGGHGGSSGGGYGGGSSGGGSSGGGYGGGSSSGGHGGSSSGGYGGGSSGGGGGGYGGGSSGGGSSSGGGYGGGSSSGGHKSSSSGSVGESSSKGPRY
Kd: 1400 to 1700 nM
